Measured values from patent US20090298167A1 (Pfizer, published 2009).
Residue numbers refer to the chain shown, from its start.

B1: scFv H3 (scFv)
scFv: QVQLQESGPGLVKTSETLSLTCAVSGYSISSGYYWGWIRQPPGKGLEWIGSISHTGNTYYNPPLKSRVTISVDTSKNQFSLKLSSVTAADTAVYYCARFMGFGRPEYWGKGTLVTVSSGGGGSGGGGSGGGGSALSSELTQDPPVSVALGQTVTLTCQGDSLRTYYASWYQQKSGQAPILLLYGKHKRPSGIPDRFSGSTSGDTASLTITGAQAEDEADYYCNSRDSSGNPHVLFGGGTQLTVL
B2: scFv H4 (scFv)
scFv: B1 scFv with F99W, M100L
B3: scFv L8 (scFv)
scFv: B1 scFv with F99G, M100G, F102I, G103S, N223T, S224T, D226S, S227T, S228Q
B4: scFv L3 (scFv)
scFv: B1 scFv with F99G, M100G, F102I, G103S, N223V, D226A, S227V, S228V
B5: scFv L24 (scFv)
scFv: B1 scFv with F99G, M100G, F102I, G103S, N223I, S224A, D226S, S227N, S228K
B6: scFv L11 (scFv)
scFv: B1 scFv with F99G, M100G, F102I, G103S, N223S, D226S, S227R, S228H
B7: scFv L13 (scFv)
scFv: B1 scFv with F99G, M100G, F102I, G103S, N223V, S224T, D226N, S227R, S228Y
B8: scFv L20 (scFv)
scFv: B1 scFv with F99G, M100G, F102I, G103S, N223V, D226S, S227A, S228K
B9: scFv L2 (scFv)
scFv: B1 scFv with F99G, M100G, F102I, G103S, N223V, S224A, D226S, S227V, S228V
B10: scFv L18 (scFv)
scFv: B1 scFv with F99G, M100G, F102I, G103S, N223V, S224T, D226S, S227V, S228K
B11: scFv L6 (scFv)
scFv: B1 scFv with F99G, M100G, F102I, G103S, N223M, D226S, S227I, S228W
B12: scFv L25 (scFv)
scFv: B1 scFv with F99G, M100G, F102I, G103S, N223T, S224T, D226S, S227N, S228K
B13: scFv L5 (scFv)
scFv: B1 scFv with F99G, M100G, F102I, G103S, N223A, D226S, S228K
B14: scFv L14 (scFv)
scFv: B1 scFv with F99G, M100G, F102I, G103S, N223M, S224A, D226S, S227R, S228K
B15: scFv L15 (scFv)
scFv: B1 scFv with F99G, M100G, F102I, G103S, N223S, S224T, D226A, S227I, S228H
B16: scFv L4 (scFv)
scFv: B1 scFv with F99G, M100G, F102I, G103S, N223S, S224T, D226S, S228K
B17: scFv L23 (scFv)
scFv: B1 scFv with F99G, M100G, F102I, G103S, N223S, S224A, D226S, S227V, S228R
B18: scFv L9 (scFv)
scFv: B1 scFv with F99G, M100G, F102I, G103S, N223V, S224A, D226S, S227N, S228K
B19: scFv L19 (scFv)
scFv: B1 scFv with F99G, M100G, F102I, G103S, N223V, S224A, D226A, S227V, S228R
B20: scFv L16 (scFv)
scFv: B1 scFv with F99G, M100G, F102I, G103S, N223V, S224T, D226S, S227A, S228K
B21: scFv L17 (scFv)
scFv: B1 scFv with F99G, M100G, F102I, G103S, N223S, S224T, D226S, S227R, S228K
B22: scFv L1 (scFv)
scFv: B1 scFv with F99G, M100G, F102I, G103S, N223A, D226S, S227V
B23: scFv H6 (scFv)
scFv: B1 scFv with M100F
B24: scFv L21 (scFv)
scFv: B1 scFv with F99G, M100G, F102I, G103S, N223A, S224T, D226A, S227V, S228R
B25: scFv L12 (scFv)
scFv: B1 scFv with F99G, M100G, F102I, G103S, N223V, S224A, D226G, S227T, S228R
B26: scFv L10 (scFv)
scFv: B1 scFv with F99G, M100G, F102I, G103S, N223I, D226S, S227I, S228Y
B27: scFv H5 (scFv)
scFv: B1 scFv with M100L

The binders below were run against human IL-21R expressed on cells (human, UniProt Q9HBE5 20-538) (assay: cell-based or functional assay).
Sequence of human IL-21R expressed on cells (Q9HBE5 20-538 limits assumed): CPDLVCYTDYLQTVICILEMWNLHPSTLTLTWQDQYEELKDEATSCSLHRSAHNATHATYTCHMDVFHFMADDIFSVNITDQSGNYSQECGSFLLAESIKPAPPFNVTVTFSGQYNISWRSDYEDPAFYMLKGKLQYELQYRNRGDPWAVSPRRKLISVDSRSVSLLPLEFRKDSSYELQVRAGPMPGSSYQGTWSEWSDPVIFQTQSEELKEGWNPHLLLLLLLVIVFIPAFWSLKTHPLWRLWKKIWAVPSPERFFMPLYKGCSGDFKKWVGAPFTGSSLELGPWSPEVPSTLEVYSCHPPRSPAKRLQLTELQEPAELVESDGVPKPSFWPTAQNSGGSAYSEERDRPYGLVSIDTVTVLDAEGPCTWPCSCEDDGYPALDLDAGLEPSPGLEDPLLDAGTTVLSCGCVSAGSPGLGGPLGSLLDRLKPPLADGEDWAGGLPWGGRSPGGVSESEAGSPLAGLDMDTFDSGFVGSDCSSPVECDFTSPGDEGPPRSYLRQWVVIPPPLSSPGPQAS
For B1, the “IC50 (nM) in Human IL-21R-BaF3 Neutralization Assay” value was 7.7 nM and the “IC50 (nM) in Human IL-21R-TF1 Neutralization Assay” value was 98.1 nM.
With B2 the “IC50 (nM) in Human IL-21R-BaF3 Neutralization Assay” value was 3.8 nM and the “IC50 (nM) in Human IL-21R-TF1 Neutralization Assay” value was 9.3 nM.
B3 was tested, and the “IC50 (nM) in Human IL-21R-BaF3 Neutralization Assay” value was 4.1 nM and the “IC50 (nM) in Human IL-21R-TF1 Neutralization Assay” value was 51.3 nM.
In the case of B4, the “IC50 (nM) in Human IL-21R-BaF3 Neutralization Assay” value is reported as 27.6 nM and the “IC50 (nM) in Human IL-21R-TF1 Neutralization Assay” value is reported as roughly 7 nM.
With B5 the “IC50 (nM) in Human IL-21R-BaF3 Neutralization Assay” value was 2.4 nM and the “IC50 (nM) in Human IL-21R-TF1 Neutralization Assay” value was 18.7 nM.
In the case of B6, the “IC50 (nM) in Human IL-21R-BaF3 Neutralization Assay” value is reported as 4.2 nM and the “IC50 (nM) in Human IL-21R-TF1 Neutralization Assay” value is reported as 38.3 nM.
B7 was tested, and the “IC50 (nM) in Human IL-21R-BaF3 Neutralization Assay” value was 11 nM and the “IC50 (nM) in Human IL-21R-TF1 Neutralization Assay” value was 257 nM.
For B8, the “IC50 (nM) in Human IL-21R-BaF3 Neutralization Assay” value was 3.1 nM and the “IC50 (nM) in Human IL-21R-TF1 Neutralization Assay” value was 57.5 nM.
B9 was tested, and the “IC50 (nM) in Human IL-21R-BaF3 Neutralization Assay” value was 3.1 nM and the “IC50 (nM) in Human IL-21R-TF1 Neutralization Assay” value was 37.5 nM.
In the case of B10, the “IC50 (nM) in Human IL-21R-BaF3 Neutralization Assay” value is reported as 3.7 nM and the “IC50 (nM) in Human IL-21R-TF1 Neutralization Assay” value is reported as 54.4 nM.
In the case of B11, the “IC50 (nM) in Human IL-21R-BaF3 Neutralization Assay” value is reported as 5.9 nM and the “IC50 (nM) in Human IL-21R-TF1 Neutralization Assay” value is reported as roughly 150 nM.
In the case of B12, the “IC50 (nM) in Human IL-21R-BaF3 Neutralization Assay” value is reported as 3.7 nM and the “IC50 (nM) in Human IL-21R-TF1 Neutralization Assay” value is reported as 33.1 nM.
In the case of B13, the “IC50 (nM) in Human IL-21R-BaF3 Neutralization Assay” value is reported as 2.1 nM and the “IC50 (nM) in Human IL-21R-TF1 Neutralization Assay” value is reported as roughly 20 nM.
With B14 the “IC50 (nM) in Human IL-21R-BaF3 Neutralization Assay” value was 3.2 nM and the “IC50 (nM) in Human IL-21R-TF1 Neutralization Assay” value was 33.5 nM.
With B15 the “IC50 (nM) in Human IL-21R-BaF3 Neutralization Assay” value was 3.3 nM and the “IC50 (nM) in Human IL-21R-TF1 Neutralization Assay” value was 30.3 nM.
For B16, the “IC50 (nM) in Human IL-21R-BaF3 Neutralization Assay” value was 2.1 nM and the “IC50 (nM) in Human IL-21R-TF1 Neutralization Assay” value was roughly 60 nM.
With B17 the “IC50 (nM) in Human IL-21R-BaF3 Neutralization Assay” value was 1.5 nM and the “IC50 (nM) in Human IL-21R-TF1 Neutralization Assay” value was 15.3 nM.
In the case of B18, the “IC50 (nM) in Human IL-21R-BaF3 Neutralization Assay” value is reported as 2.8 nM and the “IC50 (nM) in Human IL-21R-TF1 Neutralization Assay” value is reported as 27.7 nM.
With B19 the “IC50 (nM) in Human IL-21R-BaF3 Neutralization Assay” value was 4.5 nM and the “IC50 (nM) in Human IL-21R-TF1 Neutralization Assay” value was 35.3 nM.
B20 was tested, and the “IC50 (nM) in Human IL-21R-BaF3 Neutralization Assay” value was 3.7 nM and the “IC50 (nM) in Human IL-21R-TF1 Neutralization Assay” value was 67.4 nM.
With B21 the “IC50 (nM) in Human IL-21R-BaF3 Neutralization Assay” value was 1.6 nM and the “IC50 (nM) in Human IL-21R-TF1 Neutralization Assay” value was 60.3 nM.
For B22, the “IC50 (nM) in Human IL-21R-BaF3 Neutralization Assay” value was 3.7 nM and the “IC50 (nM) in Human IL-21R-TF1 Neutralization Assay” value was roughly 55 nM.
B23 was tested, and the “IC50 (nM) in Human IL-21R-BaF3 Neutralization Assay” value was 13.8 nM and the “IC50 (nM) in Human IL-21R-TF1 Neutralization Assay” value was roughly 150 nM.
For B24, the “IC50 (nM) in Human IL-21R-BaF3 Neutralization Assay” value was 9.4 nM and the “IC50 (nM) in Human IL-21R-TF1 Neutralization Assay” value was roughly 100 nM.
B25 was tested, and the “IC50 (nM) in Human IL-21R-BaF3 Neutralization Assay” value was 2.6 nM and the “IC50 (nM) in Human IL-21R-TF1 Neutralization Assay” value was 54.9 nM.
For B26, the “IC50 (nM) in Human IL-21R-BaF3 Neutralization Assay” value was 15.1 nM and the “IC50 (nM) in Human IL-21R-TF1 Neutralization Assay” value was 7 nM.
In the case of B27, the “IC50 (nM) in Human IL-21R-BaF3 Neutralization Assay” value is reported as 7.9 nM and the “IC50 (nM) in Human IL-21R-TF1 Neutralization Assay” value is reported as 178 nM.

Each binder was assayed against murine IL-21R expressed on cells (murine, UniProt Q9JHX3 20-529) (assay: cell-based or functional assay).
Sequence of murine IL-21R expressed on cells (Q9JHX3 20-529 limits assumed): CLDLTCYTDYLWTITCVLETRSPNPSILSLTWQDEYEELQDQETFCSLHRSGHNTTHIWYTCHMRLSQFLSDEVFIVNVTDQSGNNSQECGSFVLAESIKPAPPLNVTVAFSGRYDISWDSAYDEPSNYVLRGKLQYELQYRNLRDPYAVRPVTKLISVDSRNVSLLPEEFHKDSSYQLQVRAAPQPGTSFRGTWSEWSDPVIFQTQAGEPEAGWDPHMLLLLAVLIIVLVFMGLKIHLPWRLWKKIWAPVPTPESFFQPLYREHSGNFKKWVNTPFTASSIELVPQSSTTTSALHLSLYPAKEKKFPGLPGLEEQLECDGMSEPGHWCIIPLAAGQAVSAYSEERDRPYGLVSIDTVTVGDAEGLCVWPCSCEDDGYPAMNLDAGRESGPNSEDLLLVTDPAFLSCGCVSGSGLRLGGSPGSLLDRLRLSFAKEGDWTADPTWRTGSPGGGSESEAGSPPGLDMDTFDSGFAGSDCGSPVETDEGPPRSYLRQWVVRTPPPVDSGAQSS
With B1 the “IC50 (nM) in Murine IL-21R-BaF3 Neutralization Assay” value was 25.7 nM.
In the case of B3, the “IC50 (nM) in Murine IL-21R-BaF3 Neutralization Assay” value is reported as 715 nM.
For B4, the “IC50 (nM) in Murine IL-21R-BaF3 Neutralization Assay” value was 13.8 nM.
For B5, the “IC50 (nM) in Murine IL-21R-BaF3 Neutralization Assay” value was 3.73 nM.
With B6 the “IC50 (nM) in Murine IL-21R-BaF3 Neutralization Assay” value was 10 nM.
For B7, the “IC50 (nM) in Murine IL-21R-BaF3 Neutralization Assay” value was 1.25 nM.
With B8 the “IC50 (nM) in Murine IL-21R-BaF3 Neutralization Assay” value was 15.4 nM.
B9 was tested, and the “IC50 (nM) in Murine IL-21R-BaF3 Neutralization Assay” value was 2.41 nM.
B10 was tested, and the “IC50 (nM) in Murine IL-21R-BaF3 Neutralization Assay” value was 8.34 nM.
With B11 the “IC50 (nM) in Murine IL-21R-BaF3 Neutralization Assay” value was 0.29 nM.
In the case of B12, the “IC50 (nM) in Murine IL-21R-BaF3 Neutralization Assay” value is reported as 15.6 nM.
For B13, the “IC50 (nM) in Murine IL-21R-BaF3 Neutralization Assay” value was 38.5 nM.
For B14, the “IC50 (nM) in Murine IL-21R-BaF3 Neutralization Assay” value was 6.49 nM.
For B15, the “IC50 (nM) in Murine IL-21R-BaF3 Neutralization Assay” value was 53.5 nM.
With B18 the “IC50 (nM) in Murine IL-21R-BaF3 Neutralization Assay” value was 3.61 nM.
In the case of B19, the “IC50 (nM) in Murine IL-21R-BaF3 Neutralization Assay” value is reported as 13.6 nM.
For B20, the “IC50 (nM) in Murine IL-21R-BaF3 Neutralization Assay” value was 4.71 nM.
With B21 the “IC50 (nM) in Murine IL-21R-BaF3 Neutralization Assay” value was 2.66 nM.
B22 was tested, and the “IC50 (nM) in Murine IL-21R-BaF3 Neutralization Assay” value was 28.8 nM.
B24 was tested, and the “IC50 (nM) in Murine IL-21R-BaF3 Neutralization Assay” value was 162 nM.
With B25 the “IC50 (nM) in Murine IL-21R-BaF3 Neutralization Assay” value was 87.8 nM.
B27 was tested, and the “IC50 (nM) in Murine IL-21R-BaF3 Neutralization Assay” value was 53.7 nM.
